This test deals with HBsAg (patient serum). Kind of test: Jacalin-bead fractionation of patient serum, HBsAg measured by CLIA.

“Jacalin lectin (from UniProt P18670 1-133)” yielded a share of the total serum HBsAg that binds to Jacalin of 5%.
